# Experimental data published in publication PMC6441893.
# Molecular target: biotinylated histone H3 peptide acetylated at K14 (residues 1-21)
# Assay: BLI; biotinylated H3 or H3K14ac peptide (25 nM) immobilised on streptavidin sensors; BD proteins at 1 or 2 uM; 25 °C; 20 mM Tris pH 7.5, 300 mM NaCl, 1 mM TCEP, 1 uM ZnCl2, 10% glycerol, 0.5 mg/mL BSA; apparent Kd from a double exponential fit
row,"binding ratio, acetylated versus nonacetylated H3K14 peptide (H3:H3K14ac)",Substance
1,1.7,"BD2 protein of PBRM1, GST removed (domain or fragment)"
2,6.8,"BD234 protein of PBRM1, GST removed (domain or fragment)"
3,1.5,"BD4 protein of PBRM1, GST removed (domain or fragment)"
4,12.3,"BD245 protein of PBRM1, GST removed (domain or fragment)"
